From PMC9482650, “Quantitative fragmentomics allow affinity mapping of interactomes” (Nature Communications, 2022)

T1: NHERF1_1, O14745
T1 sequence (O14745 9-104, limits assumed, looked up): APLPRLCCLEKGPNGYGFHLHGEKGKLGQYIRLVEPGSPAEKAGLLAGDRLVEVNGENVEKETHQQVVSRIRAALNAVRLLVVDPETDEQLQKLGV

T2: PDZD4, Q76G19
T2 sequence (Q76G19 125-224, limits assumed, looked up): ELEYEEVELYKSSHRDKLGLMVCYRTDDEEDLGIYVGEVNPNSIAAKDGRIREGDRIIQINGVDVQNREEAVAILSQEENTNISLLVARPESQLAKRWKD

T3: MPDZ_6, O75970
T3 sequence (O75970 1003-1099, limits assumed, looked up): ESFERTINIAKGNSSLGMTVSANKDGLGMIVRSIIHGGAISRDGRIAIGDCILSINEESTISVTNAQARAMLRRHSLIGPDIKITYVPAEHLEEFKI

T4: SHROOM4, Q9ULL8
T4 sequence (Q9ULL8 5-102, limits assumed, looked up): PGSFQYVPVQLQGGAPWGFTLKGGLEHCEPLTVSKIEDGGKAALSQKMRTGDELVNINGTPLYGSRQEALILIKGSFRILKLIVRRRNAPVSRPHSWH

T5: GRIP1_1, Q9Y3R0
T5 sequence (Q9Y3R0 48-146, limits assumed, looked up): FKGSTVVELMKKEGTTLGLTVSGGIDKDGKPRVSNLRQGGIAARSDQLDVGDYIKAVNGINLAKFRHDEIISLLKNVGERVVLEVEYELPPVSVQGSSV

T6: ARHGAP21, Q5T5U3
T6 sequence (Q5T5U3 45-169, limits assumed, looked up): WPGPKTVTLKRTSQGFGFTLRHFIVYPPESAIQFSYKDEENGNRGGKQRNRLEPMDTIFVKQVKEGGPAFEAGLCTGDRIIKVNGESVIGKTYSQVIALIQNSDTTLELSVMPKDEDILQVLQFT

T7: PARD6B, Q9BYG5
T7 sequence (Q9BYG5 152-260, limits assumed, looked up): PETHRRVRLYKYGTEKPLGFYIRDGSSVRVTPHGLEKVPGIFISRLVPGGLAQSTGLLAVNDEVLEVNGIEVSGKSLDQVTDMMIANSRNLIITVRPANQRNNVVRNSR

T8: USH1C_2, Q9Y6N9
T8 sequence (Q9Y6N9 206-303, limits assumed, looked up): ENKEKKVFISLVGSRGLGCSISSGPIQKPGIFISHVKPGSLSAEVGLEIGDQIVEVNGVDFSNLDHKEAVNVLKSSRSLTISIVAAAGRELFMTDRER

T9: TJP3_1, O95049
T9 sequence (O95049 6-103, limits assumed, looked up): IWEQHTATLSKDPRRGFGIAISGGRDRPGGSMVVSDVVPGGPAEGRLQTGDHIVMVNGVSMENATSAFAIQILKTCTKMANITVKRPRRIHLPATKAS

T10: PDZD8, Q8NEN9
T10 sequence (Q8NEN9 361-459, limits assumed, looked up): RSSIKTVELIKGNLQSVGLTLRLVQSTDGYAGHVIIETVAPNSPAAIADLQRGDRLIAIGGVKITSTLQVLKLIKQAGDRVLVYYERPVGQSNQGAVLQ

T11: DVL1, O14640
T11 sequence (O14640 246-333, limits assumed, looked up): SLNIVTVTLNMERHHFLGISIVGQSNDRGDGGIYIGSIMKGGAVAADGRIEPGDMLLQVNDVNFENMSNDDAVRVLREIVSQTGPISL

T12: MPDZ_13, O75970
T12 sequence (O75970 1982-2070, limits assumed, looked up): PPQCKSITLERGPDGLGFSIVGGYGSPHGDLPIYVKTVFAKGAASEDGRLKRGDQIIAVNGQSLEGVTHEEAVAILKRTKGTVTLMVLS

T13: PTPN13_5, Q12923
T13 sequence (Q12923 1877-1975, limits assumed, looked up): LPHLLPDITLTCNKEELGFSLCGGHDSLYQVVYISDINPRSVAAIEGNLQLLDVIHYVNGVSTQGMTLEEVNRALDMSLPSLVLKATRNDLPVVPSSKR

T14: MLLT4, P55196
T14 sequence (P55196 1002-1103, limits assumed, looked up): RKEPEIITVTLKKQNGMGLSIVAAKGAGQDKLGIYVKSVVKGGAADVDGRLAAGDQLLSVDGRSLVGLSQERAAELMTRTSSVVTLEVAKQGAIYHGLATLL

T15: PTPN4, P29074
T15 sequence (P29074 512-599, limits assumed, looked up): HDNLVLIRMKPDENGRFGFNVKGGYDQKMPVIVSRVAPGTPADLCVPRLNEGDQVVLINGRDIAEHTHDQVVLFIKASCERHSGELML


How the values were obtained:
Test in all cases: holdup assay
Parameters in all cases: key: below the threshold = too weak to quantify, mostly under pKd 3.1 to 4
Settings in all cases: plain residues with an end cap or a label only (N-terminal biotin on a linker: ttds)
NHERF1_1, O14745 = target: T1, NHERF1_1, O14745
DLG5_2, Q8TDM6 = target: DLG5_2, Q8TDM6
Sequence of DLG5_2, Q8TDM6 (Q8TDM6 714-800): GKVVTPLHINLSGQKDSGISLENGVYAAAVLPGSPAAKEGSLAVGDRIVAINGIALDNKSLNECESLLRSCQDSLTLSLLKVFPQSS

GOPC, Q9HD26 = target: GOPC, Q9HD26
PDZD4, Q76G19 = target: T2, PDZD4, Q76G19
MPDZ_6, O75970 = target: T3, MPDZ_6, O75970
MAGIX, Q9H6Y5 = target: MAGIX, Q9H6Y5
Sequence of MAGIX, Q9H6Y5 (Q9H6Y5 118-211): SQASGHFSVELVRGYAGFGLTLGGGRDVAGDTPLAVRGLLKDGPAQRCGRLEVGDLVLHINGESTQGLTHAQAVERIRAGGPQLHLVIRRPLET

SDCBP_1, O00560 = target: SDCBP_1, O00560
Sequence of SDCBP_1, O00560 (O00560 111-198): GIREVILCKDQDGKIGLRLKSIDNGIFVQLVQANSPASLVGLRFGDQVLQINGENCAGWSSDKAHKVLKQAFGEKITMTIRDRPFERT

SHROOM4, Q9ULL8 = target: T4, SHROOM4, Q9ULL8
GRIP1_1, Q9Y3R0 = target: T5, GRIP1_1, Q9Y3R0
ARHGAP21, Q5T5U3 = target: T6, ARHGAP21, Q5T5U3
PARD6B, Q9BYG5 = target: T7, PARD6B, Q9BYG5
IL16_2, Q14005 = target: IL16_2, Q14005
Sequence of IL16_2, Q14005 (Q14005 350-450): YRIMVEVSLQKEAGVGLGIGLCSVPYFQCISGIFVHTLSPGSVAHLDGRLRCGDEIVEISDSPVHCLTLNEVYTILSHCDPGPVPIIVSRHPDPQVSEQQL

USH1C_2, Q9Y6N9 = target: T8, USH1C_2, Q9Y6N9
TJP3_1, O95049 = target: T9, TJP3_1, O95049
PDZD8, Q8NEN9 = target: T10, PDZD8, Q8NEN9
MAGI1_4, Q96QZ7 = target: MAGI1_4, Q96QZ7
Sequence of MAGI1_4, Q96QZ7 (Q96QZ7 other isoform, or with tags, fused parts or gaps): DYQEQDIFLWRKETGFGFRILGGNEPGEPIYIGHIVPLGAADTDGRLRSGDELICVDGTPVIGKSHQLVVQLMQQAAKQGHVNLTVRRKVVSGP

DVL1, O14640 = target: T11, DVL1, O14640
MPDZ_13, O75970 = target: T12, MPDZ_13, O75970
PTPN13_5, Q12923 = target: T13, PTPN13_5, Q12923
MLLT4, P55196 = target: T14, MLLT4, P55196
PTPN4, P29074 = target: T15, PTPN4, P29074
MAGI3_5, Q5TCQ9 = target: MAGI3_5, Q5TCQ9
Sequence of MAGI3_5, Q5TCQ9 (Q5TCQ9 847-941): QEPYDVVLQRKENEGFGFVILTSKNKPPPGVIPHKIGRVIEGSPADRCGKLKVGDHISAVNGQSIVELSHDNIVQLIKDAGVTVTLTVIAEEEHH

pKd (NHERF1_1, O14745) | pKd (DLG5_2, Q8TDM6) | pKd (GOPC, Q9HD26) | pKd (PDZD4, Q76G19) | pKd (MPDZ_6, O75970) | pKd (MAGIX, Q9H6Y5) | pKd (SDCBP_1, O00560) | pKd (SHROOM4, Q9ULL8) | pKd (GRIP1_1, Q9Y3R0) | pKd (ARHGAP21, Q5T5U3) | pKd (PARD6B, Q9BYG5) | pKd (IL16_2, Q14005) | pKd (TJP3_1, O95049) | pKd (PDZD8, Q8NEN9) | pKd (DVL1, O14640) | pKd (MPDZ_13, O75970) | pKd (PTPN13_5, Q12923) | pKd (MLLT4, P55196) | pKd (PTPN4, P29074) | pKd (MAGI3_5, Q5TCQ9) | Binder | other results
below the threshold | below the threshold | below the threshold | 4.21 | below the threshold | below the threshold | below the threshold | below the threshold | below the threshold | below the threshold | below the threshold | below the threshold | below the threshold | below the threshold | below the threshold | below the threshold | below the threshold | below the threshold | below the threshold | below the threshold | QPGTPTRTAV [MAP2K2, P36507] | pKd (USH1C_2, Q9Y6N9): below the threshold; pKd (MAGI1_4, Q96QZ7): below the threshold
below the threshold | below the threshold | below the threshold | below the threshold | below the threshold | below the threshold | below the threshold | below the threshold | below the threshold | 3.78 | below the threshold | below the threshold | below the threshold | below the threshold | below the threshold | below the threshold | below the threshold | below the threshold | 4.07 | below the threshold | CLDTSRETDL [KCNA5, P22460] | pKd (USH1C_2, Q9Y6N9): below the threshold; pKd (MAGI1_4, Q96QZ7): below the threshold
below the threshold | below the threshold | 4.32 | below the threshold | below the threshold | 5.35 | below the threshold | below the threshold | below the threshold | 3.94 | below the threshold | below the threshold | below the threshold | below the threshold | below the threshold | below the threshold | below the threshold | below the threshold | 4.91 | below the threshold | NYWPGKETQL [SLCO1C1, Q9NYB5] | pKd (USH1C_2, Q9Y6N9): below the threshold; pKd (MAGI1_4, Q96QZ7): below the threshold
below the threshold | below the threshold | 4.96 | below the threshold | below the threshold | below the threshold | below the threshold | below the threshold | below the threshold | below the threshold | below the threshold | below the threshold | below the threshold | below the threshold | below the threshold | below the threshold | 3.84 | below the threshold | below the threshold | below the threshold | RRVRKLPSTTL [RPS6KA1, Q15418] | pKd (USH1C_2, Q9Y6N9): below the threshold; pKd (MAGI1_4, Q96QZ7): below the threshold
4.09 | below the threshold | below the threshold | below the threshold | below the threshold | below the threshold | below the threshold | 3.86 | below the threshold | below the threshold | 4.58 | below the threshold | below the threshold | below the threshold | below the threshold | below the threshold | below the threshold | below the threshold | below the threshold | below the threshold | TGDTLEKFVEGL [CBP, Q92793] | –
4.46 | below the threshold | 4.24 | below the threshold | below the threshold | below the threshold | below the threshold | below the threshold | below the threshold | below the threshold | 4.25 | below the threshold | below the threshold | below the threshold | below the threshold | – | below the threshold | below the threshold | below the threshold | below the threshold | DEDQHTQITKV [PTEN, P60484] | –
